Data from article PMC9036120.
Read-outs that look alike come from different tables or passages of the source.

T1: PPARA;RXRA (mouse;mouse, UniProt P23204;P28700 1-468;1-467, |)
T1 sequence 1: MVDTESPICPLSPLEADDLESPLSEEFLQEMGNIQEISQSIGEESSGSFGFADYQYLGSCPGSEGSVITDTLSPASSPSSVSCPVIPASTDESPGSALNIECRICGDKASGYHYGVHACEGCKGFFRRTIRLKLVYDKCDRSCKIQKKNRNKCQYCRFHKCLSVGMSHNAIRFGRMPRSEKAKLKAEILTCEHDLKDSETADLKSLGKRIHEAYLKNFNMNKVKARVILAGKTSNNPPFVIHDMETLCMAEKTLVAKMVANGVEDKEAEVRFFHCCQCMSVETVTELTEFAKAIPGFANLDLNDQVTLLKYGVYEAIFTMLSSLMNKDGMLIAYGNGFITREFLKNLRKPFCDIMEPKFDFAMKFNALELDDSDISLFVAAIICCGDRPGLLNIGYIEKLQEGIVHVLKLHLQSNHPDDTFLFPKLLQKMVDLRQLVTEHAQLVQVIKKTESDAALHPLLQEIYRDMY
T1 sequence 2: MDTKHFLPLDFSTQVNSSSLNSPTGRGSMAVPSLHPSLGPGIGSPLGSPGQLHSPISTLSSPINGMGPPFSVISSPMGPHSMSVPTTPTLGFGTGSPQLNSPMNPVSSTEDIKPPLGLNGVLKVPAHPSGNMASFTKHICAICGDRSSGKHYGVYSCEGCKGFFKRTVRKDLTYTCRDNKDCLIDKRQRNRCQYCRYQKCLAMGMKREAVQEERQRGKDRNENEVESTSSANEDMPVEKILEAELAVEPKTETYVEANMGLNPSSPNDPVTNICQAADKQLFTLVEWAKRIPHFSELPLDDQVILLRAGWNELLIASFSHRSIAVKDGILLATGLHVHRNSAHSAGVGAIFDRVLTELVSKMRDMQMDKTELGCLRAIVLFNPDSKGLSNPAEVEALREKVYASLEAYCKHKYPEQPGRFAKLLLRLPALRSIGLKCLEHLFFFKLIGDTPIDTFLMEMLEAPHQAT


Experiments:
PPARA;RXRA [1] = biological target: T1, PPARA;RXRA; experiment: EMSA
PPARA;RXRA [2] = biological target: T1, PPARA;RXRA; experiment: EMSA; remark: listed apart in the source

Binder	binding result (PPARA;RXRA [1])	binding result (PPARA;RXRA [2])
E2f8-PPRE4 (dsDNA) DNA 1: AGGCCCAGTAGGTTAAAGGGCTGACATTTTA DNA 2: TAAAATGTCAGCCCTTTAACCTACTGGGCCT	binds	–
Ppara-PPRE6 (dsDNA) DNA 1: AAGTTTCAATGACCTTTGGGACAGTTAACTA DNA 2: TAGTTAACTGTCCCAAAGGTCATTGAAACTT	binds	–
Control (Acox1)-PPRE (dsDNA) DNA 1: TCCCGAACGTGACCTTTGTCCTGGTCCCCTG DNA 2: CAGGGGACCAGGACAAAGGTCACGTTCGGGA	–	binds
